Laboratory results taken from patent US20210070876A1.

T1: His-tagged human CD73 ECD (human) (UniProt P21589)
T1 sequence: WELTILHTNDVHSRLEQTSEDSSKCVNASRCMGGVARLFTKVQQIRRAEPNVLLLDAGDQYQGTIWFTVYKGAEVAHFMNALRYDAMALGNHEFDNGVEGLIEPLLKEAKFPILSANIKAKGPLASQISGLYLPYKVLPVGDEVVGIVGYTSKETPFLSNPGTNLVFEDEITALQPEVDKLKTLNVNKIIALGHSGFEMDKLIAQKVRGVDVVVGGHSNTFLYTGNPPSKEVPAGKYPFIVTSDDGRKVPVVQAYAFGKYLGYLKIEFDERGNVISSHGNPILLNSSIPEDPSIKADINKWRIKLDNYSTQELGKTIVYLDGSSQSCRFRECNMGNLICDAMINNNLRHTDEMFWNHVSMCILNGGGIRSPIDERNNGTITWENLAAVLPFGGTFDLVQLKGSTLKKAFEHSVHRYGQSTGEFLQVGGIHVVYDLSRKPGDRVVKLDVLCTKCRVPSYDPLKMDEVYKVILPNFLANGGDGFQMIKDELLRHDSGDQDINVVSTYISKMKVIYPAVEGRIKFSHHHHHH

T2: human CD73 ECD fused C-terminally to human IgG1 Fc (human) (UniProt P21589)
T2 sequence: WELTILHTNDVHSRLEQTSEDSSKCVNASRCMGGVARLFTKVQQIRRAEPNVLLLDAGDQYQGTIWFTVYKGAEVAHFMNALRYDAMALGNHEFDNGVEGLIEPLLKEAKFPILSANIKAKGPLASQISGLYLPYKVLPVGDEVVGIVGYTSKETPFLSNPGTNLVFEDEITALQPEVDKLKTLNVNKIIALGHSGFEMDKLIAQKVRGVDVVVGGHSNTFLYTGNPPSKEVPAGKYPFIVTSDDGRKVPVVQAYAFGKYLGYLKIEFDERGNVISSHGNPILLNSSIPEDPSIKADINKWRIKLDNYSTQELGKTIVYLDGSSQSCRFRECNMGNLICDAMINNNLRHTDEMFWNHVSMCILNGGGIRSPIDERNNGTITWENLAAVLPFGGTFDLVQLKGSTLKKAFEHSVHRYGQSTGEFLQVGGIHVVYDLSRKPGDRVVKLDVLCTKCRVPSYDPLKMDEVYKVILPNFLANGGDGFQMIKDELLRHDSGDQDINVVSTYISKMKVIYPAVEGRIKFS

B1: 11E1 analogue (Innate Pharma) (antibody, from another filing, IgG1, V domains shown)
VH: EIQLQQSGPELVKPGASVKVSCKASGYAFTSYNMYWVKQSHGKSLEWIGYIDPYNGGTSYNQKFKGKATLTVDKSSSTAYMHLNSLTSEDSAVYYCARGYGNYKAWFAYWGQGTLVTVSA
VL: DAVMTQTPKFLLVSAGDRVTITCKASQSVTNDVAWYQQKPGQSPKLLIYYASNRYTGVPDRFTGSGYGTDFTFTISTVQAEDLAVYFCQQDYSSLTFGAGTKLELK
B2: 11E1 analogue Fab fragment (Fab, from another filing, V domains shown)
VH: B1 VH
VL: B1 VL
B3: oleclumab analogue (MEDI9447, Medimmune) (antibody, INN chains, looked up, V domains shown)
VH: EVQLLESGGGLVQPGGSLRLSCAASGFTFSSYAYSWVRQAPGKGLEWVSAISGSGGRTYYADSVKGRFTISRDNSKNTLYLQMNSLRAEDTAVYYCARLGYGRVDEWGRGTLVTVSS
VL: QSVLTQPPSASGTPGQRVTISCSGSLSNIGRNPVNWYQQLPGTAPKLLIYLDNLRLSGVPDRFSGSKSGTSASLAISGLQSEDEADYYCATWDDSHPGWTFGGGTKLTVL
modifications: IgG1-TM
B4: oleclumab analogue Fab fragment (Fab, INN chains, looked up, V domains shown)
VH: B3 VH
VL: B3 VL
modifications: Fab
B5: CPX006 analogue (Corvus) (antibody, from another filing, IgG1, V domains shown)
VH: QVQLVQSGAEVEKPGASVKVSCKASGYTFTSYWITWVRQAPGQGLEWMGDIYPGSGNTNYNEKFKTRVTITADKSTSTAYMELSSLRSEDTAVYYCAKEGGLTTEDYALDYWGQGTLVTVSS
VL: EIVLTQSPATLSLSPGERATLSCRASKNVSTSGYSYMHWYQQKPGQAPRLLIYLASNLESGIPPRFSGSGYGTDFTLTINNIESEDAAYYFCQHSRELPFTFGQGTKVEIKR
B6: CPX006 analogue Fab fragment (Fab, from another filing, V domains shown)
VH: B5 VH
VL: B5 VL

How the values were obtained:
[1] = target: T1, His-tagged human CD73 ECD (human); assay: SPR, mAb captured, His-tagged CD73 ECD injected
[2] = target: His-tagged cynomolgus CD73 ECD (cynomolgus monkey (Macaca fascicularis)); assay: SPR, mAb captured, His-tagged CD73 ECD injected
[3] = target: T1, His-tagged human CD73 ECD (human); assay: SEC-MALS, mAb:CD73 0.5:1
[4] = target: T1, His-tagged human CD73 ECD (human); assay: SEC-MALS, mAb:CD73 0.1:1
[5] = target: T1, His-tagged human CD73 ECD (human); assay: SEC-MALS, mAb:CD73 1:1
[6] = target: cynomolgus CD73 ECD fused C-terminally to human IgG1 Fc (cynomolgus monkey (Macaca fascicularis); human); assay: SPR, Fc-tagged CD73 ECD captured, Fab injected
[7] = target: T2, human CD73 ECD fused C-terminally to human IgG1 Fc (human); assay: SPR, Fc-tagged CD73 ECD captured, Fab injected
[8] = target: human CD73 expressed on cells (human) (UniProt P21589); assay: cell-based or functional assay; conditions: scale: % viable cells compared to untreated cells

| Binder | Kd [1] [nM] | koff [1] [s⁻¹] | kon [1] [M⁻¹ s⁻¹] | Kd [2] [nM] | koff [2] [s⁻¹] | kon [2] [M⁻¹ s⁻¹] | molecular mass of complex, Peak 2 (MW, kDa) [3] [kDa] | molecular mass of complex, Peak 3 (MW, kDa) [3] [kDa] | molecular mass of complex, Peak 4 (MW, kDa) [3] [kDa] | molecular mass of complex, Peak 2 (MW, kDa) [4] [kDa] | molecular mass of complex, Peak 3 (MW, kDa) [4] [kDa] | molecular mass of complex, Peak 4 (MW, kDa) [4] [kDa] | molecular mass of complex, Peak 2 (MW, kDa) [5] [kDa] | molecular mass of complex, Peak 3 (MW, kDa) [5] [kDa] | molecular mass of complex, Peak 4 (MW, kDa) [5] [kDa] | Kd [6] [nM] | koff [6] [s⁻¹] | kon [6] [M⁻¹ s⁻¹] | Kd [7] [nM] | koff [7] [s⁻¹] | also measured |
| --- | --- | --- | --- | --- | --- | --- | --- | --- | --- | --- | --- | --- | --- | --- | --- | --- | --- | --- | --- | --- | --- |
| B1 | 0.1 | 5.6e-06 | 57000 | 0.14 | 1.3e-05 | 84000 | 277 | 566 | 3370 | 265 | 704 | 11800 | 270 | 511 | 802 |  |  |  |  |  |  |
| B2 |  |  |  |  |  |  |  |  |  |  |  |  |  |  |  | 8.7 | 0.0028 | 320000 | 9.8 | 0.0028 | kon [7]: 290000 M⁻¹ s⁻¹ |
| B3 | 0.02 | 2.5e-06 | 110000 | 0.06 | 6.6e-06 | 140000 | 870 | 559 | 1010 | 194 | 432 | 821 | 389 | 682 | 1040 |  |  |  |  |  | viable MDA-MB-468 cells in the presence of 300 µM AMP (WST-1) [8]: 70 to 80 |
| B4 |  |  |  |  |  |  |  |  |  |  |  |  |  |  |  | 0.07 | 4.3e-05 | 580000 | 0.06 | 3.4e-05 | kon [7]: 560000 M⁻¹ s⁻¹ |
| B5 | 0.02 | 2.4e-06 | 170000 | 0.33 | 1.4e-05 | 28000 | 143 | 245 | 349 | 121 | 236 | 339 | 148 | 246 | 363 |  |  |  |  |  |  |
| B6 |  |  |  |  |  |  |  |  |  |  |  |  |  |  |  | 71.6 | 0.00048 | 6700 | 80.3 | 0.00053 | kon [7]: 6600 M⁻¹ s⁻¹ |
